# Measurements published in PMC6028451, “Cotranslational protein targeting to the membrane: Nascent-chain transfer in a quaternary complex formed at the translocon” (Scientific Reports, 2018).
# Target: T1, SecYEG translocon embedded in phospholipid-containing nanodiscs (Escherichia coli, UniProt P0AGA2 1-443; P0AG96 1-127; P0AG99 1-110)
# T1 construct: SecY, Escherichia coli; SecE, Escherichia coli; SecG, Escherichia coli; membrane scaffold protein MSP1D1, the belt of the nanodisc; the disc holds E. coli total lipids; also called non-mutated SecYEG; copies: 1 + 1 + 1 + 2
# Assay: not stated; proOmpA75-RNC with SecYEG in nanodiscs (Supplementary Fig. S4b)
# Settings: both partners purified
binder,measurement,value
proOmpA75-RNC: ribosome-nascent-chain complex carrying the nascent chain of outer-membrane protein A (complex) MKKTAIAIAVALAGFATVAQAAPKDNTWYTGAKLGWSQYHDTGFINNNGPTHENQLGAGAFGGYQVNPYVGFEMG,Kd,15 ± 3 nM
